{"source": "patent US5702926", "tested_on": "Bca DNA polymerase", "settings": "unmodified dCTP; 39 units/µl with dCTPalphaS, 40-50 with dCTPalphaBH3; 4 mM Mg, 60 C"}
{"substance": "activated calf thymus DNA", "values": [{"measurement": "activity", "value": 152, "unit": "units/µl"}]}
